Target: T1, HA-tagged wild-type Erk2 (HA-Erk2, T188T or AA1-358) (mouse, UniProt P63085 1-358)
T1 construct: Mouse cDNA in a CMV expression plasmid, expressed in transfected cells; also called wt-Erk2; not shown: hemagglutinin (HA) tag
Assay: co-precipitation of HA-tagged and Flag-tagged Erk2 after carbachol stimulation
Method: HEK293-cells were cultured in the absence or presence of carbachol (100 μM, 6 min) or UK14304 (1 μM, 10 min) before lysis. The inventors prepared ventricular tissue from mouse hearts derived from male 129SvEv (FIG. 1g,h), FVB/N wild-type (WT) or Erk2^T188-transgenic mice (1188T, T188D, T188S, T188A) (FVB/N background) without or after transverse aortic constriction (TAC, see Fig. legends for the duration of TAC) or carbachol-infusion. Control animals were strain-, age- and gender-matched. Lysates of ventricular tissue underwent sonification before immunoblot or immunoprecipitation assays.
FIG. 4 Activation of the entire MAPK-cascade is necessary for interaction of Gβγ with Erk1/2. […] (b) Gene silencing of Raf1 suppressed the carbachol-stimulated interaction of Erk1/2 with Gβ as assessed by co-immunoprecipitation with ERK1/2-specific antibodies (anti-ERK1/2). (c) Inhibition of Mek1/2-activity by PD98059 (50 μM) suppressed the carbachol-stimulated (CCH, 5 min) interaction of HA-Raf1 (Raf1) with Gβ as assessed by co-immunoprecipitation. […] (g, h) Interactions of HA-tagged wild-type Erk2 (AA1-358), truncated Erk2-mutants (AA1-318; AA22-358; AA22-318) and dimerization-deficient Erk2^Δ174-177 with Gβγ as assessed by co-immunoprecipition (g) and carbachol-stimulated inositol phosphate signaling (h) in HEK293-cells. […]

binding result: no binding
B1: Flag-Erk2^Δ174-177 (enzyme)
chain: MAAAAAAGPEMVRGQVFDVGPRYTNLSYIGEGAYGMVCSAYDNLNKVRVAIKKISPFEHQTYCQRTLREIKILLRFRHENIIGINDIIRAPTIEQMKDVYIVQDLMETDLYKLLKTQHLSNDHICYFLYQILRGLKYIHSANVLHRDLKPSNLLLNTTCDLKICDFGLARVADHTGFLTEYVATRWYRAPEIMLNSKGYTKSIDIWSVGCILAEMLSNRPIFPGKHYLDQLNHILGILGSPSQEDLNCIINLKARNYLLSLPHKNKVPWNRLFPNADSKALDLLDKMLTFNPHKRIEVEQALAHPYLEQYYDPSDEPIAEAPFKFDMELDDLPKEKLKELIFEETARFQPGYRS
notes: also called D174-177; dimerization-deficient Erk2^Δ174-177-mutant; not shown: Flag tag
